Molecular target: sulfonylurea receptor 1 (Sur1) (mouse (endogenous in lumbar spinal cord))
Assay: FRET or BRET; immunoFRET on 7 um cryosections of lumbar spinal cord of pid-30 WT/EAE mice; custom anti-Sur1 and anti-Trpm4 primary antibodies, secondary antibodies conjugated with Cy3 or Cy5; control: omission of one of the two primary antibodies

Chain of sulfonylurea receptor 1 (Sur1) (mouse (endogenous in lumbar spinal cord)) (B2RUS7 entry or part of it): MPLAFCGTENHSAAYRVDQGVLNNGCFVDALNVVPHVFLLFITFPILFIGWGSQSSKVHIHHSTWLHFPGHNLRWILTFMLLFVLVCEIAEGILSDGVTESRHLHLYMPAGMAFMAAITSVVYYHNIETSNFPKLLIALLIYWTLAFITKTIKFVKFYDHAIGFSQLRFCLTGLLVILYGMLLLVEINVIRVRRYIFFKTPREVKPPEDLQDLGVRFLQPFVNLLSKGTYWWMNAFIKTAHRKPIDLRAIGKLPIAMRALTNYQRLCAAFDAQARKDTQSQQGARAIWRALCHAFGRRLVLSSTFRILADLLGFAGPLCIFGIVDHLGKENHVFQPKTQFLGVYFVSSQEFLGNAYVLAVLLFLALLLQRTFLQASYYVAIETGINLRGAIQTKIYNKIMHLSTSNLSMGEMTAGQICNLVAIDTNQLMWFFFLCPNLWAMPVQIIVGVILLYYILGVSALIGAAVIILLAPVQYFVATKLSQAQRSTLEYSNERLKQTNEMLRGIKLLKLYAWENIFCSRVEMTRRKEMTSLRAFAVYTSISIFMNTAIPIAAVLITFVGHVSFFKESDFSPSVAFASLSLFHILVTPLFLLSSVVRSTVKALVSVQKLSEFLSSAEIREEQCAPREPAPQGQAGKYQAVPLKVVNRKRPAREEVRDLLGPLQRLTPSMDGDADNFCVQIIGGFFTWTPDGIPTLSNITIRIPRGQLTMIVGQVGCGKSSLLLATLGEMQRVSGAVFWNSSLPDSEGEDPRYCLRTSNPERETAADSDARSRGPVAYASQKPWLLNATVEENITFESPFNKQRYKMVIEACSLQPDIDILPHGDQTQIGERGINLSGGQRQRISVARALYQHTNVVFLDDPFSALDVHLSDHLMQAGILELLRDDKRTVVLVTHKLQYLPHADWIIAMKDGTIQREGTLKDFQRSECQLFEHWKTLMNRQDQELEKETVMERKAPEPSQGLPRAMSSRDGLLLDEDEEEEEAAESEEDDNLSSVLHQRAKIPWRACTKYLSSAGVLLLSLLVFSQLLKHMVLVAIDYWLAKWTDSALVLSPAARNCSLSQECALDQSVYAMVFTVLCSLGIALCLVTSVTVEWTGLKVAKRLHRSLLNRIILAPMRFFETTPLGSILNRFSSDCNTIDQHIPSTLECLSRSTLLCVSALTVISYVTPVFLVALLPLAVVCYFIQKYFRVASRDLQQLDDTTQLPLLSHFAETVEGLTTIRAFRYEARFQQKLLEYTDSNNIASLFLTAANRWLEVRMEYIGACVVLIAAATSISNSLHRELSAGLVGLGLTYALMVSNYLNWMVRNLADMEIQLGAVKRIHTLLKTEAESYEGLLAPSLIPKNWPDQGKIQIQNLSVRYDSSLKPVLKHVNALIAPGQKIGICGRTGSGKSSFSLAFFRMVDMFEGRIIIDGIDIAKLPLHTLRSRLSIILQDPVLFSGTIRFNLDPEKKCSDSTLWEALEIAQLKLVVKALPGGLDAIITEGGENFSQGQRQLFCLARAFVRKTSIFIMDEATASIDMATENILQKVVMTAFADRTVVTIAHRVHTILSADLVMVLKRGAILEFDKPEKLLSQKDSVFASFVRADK

transient receptor potential melastatin 4 (Trpm4) (from UniProt Q7TN37 1-1213) (natural protein)
FRET efficiency: 10 to 14%

From PMC4652344
